Results on two molecules are retold here after patent publication US20230139680A1 (TEXAS A AND M UNIVERSITY SYSTEM, published 2023).

For test [1], the target named is T1, HDAC8 (UniProt Q9BY41 1-377).
T1 construct: Expressed in E. coli BL21(DE3) CodonPlus, purified on Ni-NTA and Q Sepharose; also called HAC8; histone deacetylase 8; not shown: C-terminal TEV site and His6 tag by the plasmid's name (pHD4-HDAC8-TEV-His6)
T1 sequence (looked up): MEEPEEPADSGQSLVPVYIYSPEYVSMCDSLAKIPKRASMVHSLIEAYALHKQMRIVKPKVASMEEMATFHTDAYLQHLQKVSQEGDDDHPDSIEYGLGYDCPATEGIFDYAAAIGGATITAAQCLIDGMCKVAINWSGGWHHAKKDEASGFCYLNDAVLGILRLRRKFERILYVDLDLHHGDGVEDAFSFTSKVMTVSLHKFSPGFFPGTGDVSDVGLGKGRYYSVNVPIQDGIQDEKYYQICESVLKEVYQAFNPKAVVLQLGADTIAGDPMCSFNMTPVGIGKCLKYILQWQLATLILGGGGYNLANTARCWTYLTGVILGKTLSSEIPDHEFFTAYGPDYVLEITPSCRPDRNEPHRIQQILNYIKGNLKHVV
Kind of test: fluorescence polarization (summary sentence of the example). In general terms: In fluorescence polarisation assays a small probe gives low polarisation when free and higher when bound to something large.

For test [2], the target named is T1, HDAC8. Put plainly: fluorescence polarization, 25 nM 5-FAM peptide, protein titrated.
Method: The fluorescence polarization was measured in a microplate reader at Ex/Em=490 nm/520 nm.
Test [3] has as its target T1, HDAC8. Kind of test: cell-based or functional assay.

Starred links: 1 amine or outer side, 2 acyl side, 3 side chain; linkers in the order of their positions; H or OH if unused. Positions of bridges follow the written chain, without caps; N, C: chain ends. Non-standard residues stand in square brackets, D forms with d. No end group written: not given here. *: point of attachment. AcrK = N6-acryloyl-L-lysine, C=CC(=O)NCCCC[C@H](N[*:1])C(=O)[*:2]; 5FAM = O=C1OC2(c3ccc(O)cc3Oc3cc(O)ccc32)c2ccc(C(=O)*)cc21

B1: 5-FAM-conjugated CycH8a (peptide)
peptide: CQSLWMN[AcrK]K(5FAM)-NH2
modifications: bridge 1-8; not fully specified (bridges)
notes: also called 5FAM-CycH8a; 5FAM-cycH8a
For B1, in the test with HDAC8 [1], the “fold stronger affinity than its linear counterpart” value is 6 fold. Moreover, the Kd (usually the equilibrium constant for the complex coming apart) with HDAC8 [2] was 7.1 µM. Also, in the test with HDAC8 [3], the “IC50 of inhibition of HDAC8 deacetylation of Boc-AcK-AMC (fluorogenic, trypsin-coupled activity assay)” value amounted to 9.7 µM.

B2: 5-FAM-conjugated LinH8a (peptide)
peptide: CQSLWMNKK(5FAM)-NH2
modifications: N-terminus assumed
SMILES: CSCC[C@H](NC(=O)[C@H](Cc1c[nH]c2ccccc12)NC(=O)[C@H](CC(C)C)NC(=O)[C@H](CO)NC(=O)[C@H](CCC(N)=O)NC(=O)[C@@H](N)CS)C(=O)N[C@@H](CC(N)=O)C(=O)N[C@@H](CCCCN)C(=O)N[C@@H](CCCCNC(=O)c1ccc2c(c1)C(=O)OC21c2ccc(O)cc2Oc2cc(O)ccc21)C(N)=O
notes: Linear counterpart with plain Lys in place of AcrK; also called linear counterpart of 5FAM-CycH8a
Turning to B2, the Kd with HDAC8 [2] is above 50 µM.
